Experimental findings from the DeepSol protein solubility set are described below.

A short description of this series: soluble on expression in E. coli; label from the status in PepcDB or PDB records.
As for “MWLSSEELSAKKTACHVRNVESNKEFADSDIVASFVHNRPKDLKNLTFERHGKGGRKKAPIFSVKGDISEHVVEVGADVNCLDEGFDFAVALVDKRTGEATYRPARFYSFESKFSEDIEKIFSDKKESSSEEYKNDFSIGAEKWAEKRRQLTSNFGSSKKIKMDEAAQRRTINQETLDEMRKTAFASNSNVKTEDGAADVKLENITMMNKAESSILPPAVQTELSRDIYPISLFLEDIEIDAIESIATELMEKKKKEKLEAGIPECVTLIMYNEKTKQRAAAYLLLSTMIEILTKMGKQRQLLRKDLSELKMPDILRQKVQAQFFNDSTNEKGYTGRGAERIRLNVTDYDRFIAHTLALALTLAPEHKVPITPFQQALSYQPSKLEKMFQALGADLIRLDVASAQTLRSLRAAILLKPPSLEQKGPRKIIRR”, the “soluble on expression in E. coli” value is on record as “not soluble”. Under “MWPLLKNNVVRTGRRYAVFQPRRFTPRPQHDAFGTKDDVRGFTVFSHAACGASLMDPLSPSRWEVALFPSSPPSLKDSCHLCAWTFGLAGPCAAWLSTRRELVGGFSKIIYIQNSAECWSVRETKRCCRICRWRSTSSSTDLRSNPYPIRWCYCWTMFPPMYPVLLLTASPVPTPLEHHHHHH” stands “not soluble”; under “MWRELWRVVEKSDIIVQIVDARNPLLFRSKDLDDYVKEVDPAKQILLLVNKADLLKPEQQASWREYFEKENIKVIFWSAIDEVLDPIDEDAVETSNPSTSTHMFVTNKDELIAKFKELGHVSDEPSAKPVMVGMVGYPNVGKSSTINKLAGGKKVSVSATPGKTRHFQTIHIDSQLCLCDCPGLVMPSFSFGRSEMFLNGILPVDQMRDHFGPTSLLLSRVPVHVIEATYSIMLPEMQSPSAINLLNSLAFMRGFMASSGIPDCSRAARLMFKDVVSGKLIWAAAPPGVEQEEFDRISYPDKKTRDIGRVQMEKLAKLQLLEGDELKGSQFDSQHFVGSIGVAHVRDSKALPQTLGTVIPTAPTENNGKKHYKGKKDKLRRIYNE”, “not soluble”. Next, “MWRVCARRAQNVAPWAGLEARWTALQEVPGTPRVTSRSGPAPVRRNSVTTGYGGVRALCGWTPSSGATPRNRLLLQLLGSPGRRYYSLPPHQKVPLPSLSPTMQAGTIARWEKKEGDKINEGDLIAEVETDKATVGFESLEECYMAKILVAEGTRDVPIGAIICITVGKPEDIEAFKNYTLDSSAAPTPQAAPAPTPAATASPPTPSAQAPGSSYPPHMQVLLPALSPTMTMGTVQRWEKKVGEKLSEGDLLAEIETDKATIGFEVQEEGYLAKILVPEGTRDVPLGTPLCIIVEKEADISAFADYRPTEVTDLKPQAPPPTPPPVAAVPPTPQPLAPTPSAPCPATPAGPKGRVFVSPLAKKLAVEKGIDLTQVKGTGPDGRITKKDIDSFVPSKVAPAPAAVVPPTGPGMAPVPTGVFTDIPISNIRRVIAQRLMQSKQTIPHYYLSINVNMGEVLLVRKELNKILEGRSKISVNDFIIKASALACLKVPEANSSWMDTVIRQNHVVDVSVAVSTPAGLITPIVFNAHIKGVETIANDVVSLATKAREGKLQPHEFQGGTFTISNLGMFGIKNFSAIINPPQACILAIGASEDKLVPADNEKGFDVASMMSVTLSCDHRVVDGAVGAQWLAEFRKYLEKPITMLL”: “soluble”. Next, “MWRVVFDCEEAVRWLRQAKHTLESIRVDYEGGFYSWACFKANQAAEYSIKAVLRAAGLESFGHDLMALWRRARSLCQPLQEMEECIAVLNKLYLPPRYPDAWPGGAAPFENYTRRDAEEALECASRVYRAVEECLGEECEDS”: “soluble”; “MYDVTIIGAGVSSIFMAYSLAKSNKKVLILDKGKALEDRHCPLDEGKVCNCTTCDKYFGFGGLGKSEGKFNYTNGFGGELEKKVGKEGFLQLMAEVDEILCQFGGSSVSKYSTENSSLTKRAEACGLQMLTTEVRHLGTTLSSNIFQQLYEFLLTKIKIQFHIDVQHILKQEDHFTIDTNQGTVQTKQLVFATGRSGADWLKEMCSSLNISQEQTRVDLGIRVEMKEHQLRSILKDTFETKLSYQGEHFTATTYCMNPKGRIIRKYEEGLVMPDGQNFREQGTGTSNLNFTLFIPSYFPTLKEANVYASSIIKGINQGRDRIVIQRLEDLLKKQPTAENSMEHSRIQPTLQGDYGDLNQEIPQLYIEGLKEFLLRLEQFIQEPIDQHTLLYGIDGKFYAPTIKINNHFETSIHGLFLIGDCSGVTHSLSQAAASGLYVGKYLSDILEHHHHHH”: “soluble”; “MYEGTLSMAVQSLGQAVNYCKRFGPRLVATKMLYKLLPQAGFSVCRQIEEYLKHYYLPDVAYHKTEFCGKIQADAPIWVMWWQGEERMPDVVRLAVASMRRFAGRRPVMLITKDNYHDYAKRSVDFYRYVEHGAISLTHFSDYVRFDLLHKYGGFWLDATLLMTAPIPDFVNDLRLFSIKHGTIRPGEQWSPMWSRNWTAYCWGGCAGDPFFDFMLRFFERYHEREGSVMIDYFLIDRIISVAYQEFVDVRNTIDAIPVNNVDVLTSPIVNTASINHRSDDNGTFLHKLSWKEPPQPDCGNGQRSWFGQLLDQYGIRLEHHHHHH”: “not soluble”. Take “MYFSWLFLVFFSSRSLTGTPRSIDQRQLRAELSGTGTPTAPADSPALVPNCTQTRGGEDGEGCKQPRVDIKKFRKKKGAHKPQEPETLNFKFRQNLLSLKFLKERKELLVSII”: the “soluble on expression in E. coli” value is given as “not soluble”.

As to “MYGISVFLGEEITNDTIIYIKKMKALGFDGIFTSLHIPEDDTSLYRQRLTDLGAIAKAEKMKIMVDISGEALKRAGFSFDELEPLIELGVTGLRMDYGITIEQMAHASHKIDIGLNASTITLEEVAELKAHQADFSRLEAWHNYYPRPETGIGTTFFNEKNRWLKELGLQVFTFVPGDGQTRGPIFAGLPTLEKHRGQNPFAAAVGLMADPYVDAVYIGDPTISERTMAQFGYYHQTNQFLLEVAPSESRYLKRILGTHTNRLDAARDVLRSELSRTSEMFRKDEIATIESEQTEARPVGTVTIDNEKYGRYMGEIQVTLVDLPKDEKVNTITRIIEKDQTILPLIKAGNQFTLVTEGTIENEFRKLNN”, the “soluble on expression in E. coli” value was “soluble”. Next, “MYHLKKQRIMGAVKRNTLSVLFIIKKAKLLKNGEAPVCMRITVNKRVAEVMIKRSIPVDLWNQKKECSKGKDRVAIELNHYINTVRAKVLQIHRELEIDNKPITADIIKDCFYGRDKVQRSLQEVYKEHNEKCRALIGKEYTESTVIKFDTSINRLKEYIRSCYHRDDIMLAELDGQFIRDFDFWLKTEKHCQNNSALKHLKNLKKVVRIALANDWIKKDPFYGIHFKQEEVNVEFLSREELDILMNKEFAIKRLEQVRDIFVFCCFTALAFVDVQQLSREHLIKDNSGALWIRKARQKTNQMCNIPVLSIPQRILRKYEDNAECIKKGVLLPVISNQRMNAYLKEIADLCGITKRLTTHVARHTAATIVFLANDVSMENVSKILGHSNIRMTQHYAKVLDSSIMRDMVNVEKNFK”: “not soluble”; “MYHNNNYGYNNHRGGGGFRHNNYNNNNNNHHHHYNNLPRINETQVPQSKHTIFIRGLHGDISTEEIKEYIGEKVGKISFDFVKVAQDKSKIFVAVRFENRDEAKEFMETYSDREFMGCRCDLSWFRDIRRYCAYQRAKQVRSNSQRRRRRSDSQESSKRSASPPVRRGRSKSRSRSRSPSRSRSRSRSRSVSRSKSPASRNGRVSRHRSRSQNRSRSRSNTRSRSRSSGRSGSAHSRKSDDVDSFDDESFDEKSRVKDNEARQKRRRELSDDDRKDVRETQPKKSVKEELPQIPLPPKTEAAASPSPAPPTPKASKSASFIPPPTADDMELESPPHVSNNQYEYQQSNNTYNQIRTGASPVSVSYSVPMEVEATPKMIVRETPQPAQPPVQVNSYYTTTPIQQQQQQQQPIPPQLPTACAPVCKYLTKIFRVETRYHIPRGANFHVCVIRFSPPQPPPTTPQPAFVPRQIGRIEIVMPSSLPAPVVSAAAASASAAAHPVAMNGSAISGGSSMPDITMHPNTNKLFGHLKAFQSALLSTVKYEPPARKEEDEAGFSTLRLSSLATEDDSADEEKAMVRELKLAKLNDEQMMRFHIKKKQLESAFRNDCETYAVVTRALLAKDESLQFGLKMALLENMEDLYKKMMQRVDDQLDALLVMA”: “not soluble”.

As for “MYKHILVPVDLNEQGFADKAVQLAVWHAKHSNAEIHLLNVLPGIHMSMVATYFPKDAAAQMKNDVRAQLKAFAEKHIAEEVVYKLHIAEGKPYATILDYAERLGADLIVMPSHKRSRIDKVMLGSVASKVVENSPINVMVVKPQG”, the “soluble on expression in E. coli” value is “not soluble”. Consider “MYKIGIDVGGTNTDAVILDHQLNLIHSVKVPTTDDIQTGIAGALNKVLAESAVDPTKVTHAMLGTTQCTNAIVERKKLAKVGVLRLGYPATASVLPYTAWPKDLVATLSETYALAHGGYEYDGQPLTALDEEELRGILASWRGEVEAIAVIGVFSSLKNDQELFVQALAKEVL”, for which the “soluble on expression in E. coli” value is “not soluble”.
